Data from the supplement of paper PMC7125110.
± gives the standard error. Fewer inactive variants are shown than the library holds.

B1: glmS ribozyme (parent)
chain: AUAAAAGCGCCAGAACUACAGAAAUGUAGUUGACGAGGAGGAGGUUUAUCGAAUUUUCGGCGGAUGCCUCCAAA

Legend:
Conditions in all cases: with glucosamine-6-phosphate
glucosamine-6-phosphate [1] = variants of: B1; test: self-cleavage kobs at 40 uM GlcN6P; higher = faster cleavage; RNA array
Procedure, shortened: (§1)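 Tiles of sequenced MiSeq chips were imaged over ~14 h at 37 °C. On them, barcoded ribozyme variants had been transcribed in situ by E. coli RNA polymerase and were tracked via a hybridised Cy3 probe while glucosamine-6-phosphate (40 μM to 10 mM) in HEPES/KCl/Mg(OAc)2 buffer flowed in. Per-tile medians, normalised to baseline and to non-cleaving reference variants, were fit to one- or two-exponential decays for kobs, and weighted Michaelis–Menten fits gave kcat and KM.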

glucosamine-6-phosphate [2] = variants of: B1; test: self-cleavage kobs at 160 uM GlcN6P; higher = faster cleavage; RNA array
Procedure, shortened: as §1

glucosamine-6-phosphate [3] = variants of: B1; test: self-cleavage kobs at 10000 uM GlcN6P; higher = faster cleavage; RNA array
Procedure, shortened: as §1

glucosamine-6-phosphate [4] = variants of: B1; test: self-cleavage kobs at 640 uM GlcN6P; higher = faster cleavage; RNA array
Procedure, shortened: as §1

glucosamine-6-phosphate [5] = variants of: B1; test: self-cleavage kobs at 2500 uM GlcN6P; higher = faster cleavage; RNA array
Procedure, shortened: as §1

| Variant | self-cleavage kobs at 40 uM GlcN6P (glucosamine-6-phosphate [1]) [s⁻¹] | self-cleavage kobs at 160 uM GlcN6P (glucosamine-6-phosphate [2]) [s⁻¹] | self-cleavage kobs at 10000 uM GlcN6P (glucosamine-6-phosphate [3]) [s⁻¹] | self-cleavage kobs at 640 uM GlcN6P (glucosamine-6-phosphate [4]) [s⁻¹] | self-cleavage kobs at 2500 uM GlcN6P (glucosamine-6-phosphate [5]) [s⁻¹] |
| --- | --- | --- | --- | --- | --- |
| U45C C58A | < 1e-05 | < 1e-05 | – | – | – |
| U45A G59U C70G | < 1e-05 | – | < 1e-05 | – | – |
| G41A G63A | < 1e-05 | – | < 1e-05 | < 1e-05 | – |
| A42C G59C C67G | < 1e-05 | – | < 1e-05 | – | < 1e-05 |
| U45G U69A | 0.000333 ± 8.4e-05 | – | 0.000362 ± 7.9e-05 | – | 0.000589 ± 0.00025 |
| U45A C70G | 0.000107 ± 4.1e-05 | 0.000105 ± 3.6e-05 | 0.000826 ± 0.00032 | 0.000198 ± 7.9e-05 | 0.00053 ± 0.00019 |
| G41C G44A | < 1e-05 | < 1e-05 | < 1e-05 | < 1e-05 | – |
| G41C G44U | < 1e-05 | < 1e-05 | < 1e-05 | < 1e-05 | < 1e-05 |
| U47A U57G | < 1e-05 | – | 4.75e-05 ± 8.7e-06 | – | – |
| G41A U46G G51U | < 1e-05 | – | – | – | – |
| G44A C61G | < 1e-05 | < 1e-05 | < 1e-05 | – | < 1e-05 |
| A42C U55A U57C | < 1e-05 | – | – | – | – |
| A42G U56A G60U | < 1e-05 | – | < 1e-05 | – | < 1e-05 |
| G44U A48G | < 1e-05 | < 1e-05 | < 1e-05 | < 1e-05 | < 1e-05 |
| G44U U45C G63A | < 1e-05 | – | – | – | – |
| A42U G51A | < 1e-05 | – | – | < 1e-05 | – |
| G43U C71G | < 1e-05 | < 1e-05 | < 1e-05 | < 1e-05 | – |
| A42U U49G U57A C61G | < 1e-05 | – | < 1e-05 | < 1e-05 | < 1e-05 |
| G41U A42U C70A | 0.000142 ± 2.3e-05 | – | 0.00204 ± 0.00044 | – | – |
| G43C U46C | < 1e-05 | < 1e-05 | – | < 1e-05 | < 1e-05 |
| G43C U46G | < 1e-05 | < 1e-05 | – | < 1e-05 | < 1e-05 |

| Variant | self-cleavage kobs at 40 uM GlcN6P (glucosamine-6-phosphate [1]) [s⁻¹] | self-cleavage kobs at 160 uM GlcN6P (glucosamine-6-phosphate [2]) [s⁻¹] | self-cleavage kobs at 10000 uM GlcN6P (glucosamine-6-phosphate [3]) [s⁻¹] | self-cleavage kobs at 640 uM GlcN6P (glucosamine-6-phosphate [4]) [s⁻¹] | self-cleavage kobs at 2500 uM GlcN6P (glucosamine-6-phosphate [5]) [s⁻¹] |
| --- | --- | --- | --- | --- | --- |
| G41U G44C | < 1e-05 | < 1e-05 | < 1e-05 | < 1e-05 | < 1e-05 |
| U45C C50U | < 1e-05 | < 1e-05 | – | < 1e-05 | – |
| A42U A52C | < 1e-05 | < 1e-05 | – | < 1e-05 | < 1e-05 |
| G44A G59C | < 1e-05 | < 1e-05 | < 1e-05 | < 1e-05 | < 1e-05 |
| U45G C50U A64G | < 1e-05 | – | – | < 1e-05 | – |
| A42U C61U | < 1e-05 | < 1e-05 | < 1e-05 | < 1e-05 | < 1e-05 |
| G41U C50A U57A | < 1e-05 | – | < 1e-05 | – | – |
| G44C U57C | < 1e-05 | < 1e-05 | < 1e-05 | < 1e-05 | < 1e-05 |
| A42U A48G | < 1e-05 | < 1e-05 | – | < 1e-05 | – |
| A42G U55A G63C | < 1e-05 | – | – | – | < 1e-05 |
| U47G G51A | < 1e-05 | – | – | – | – |
| A42G U45G | 0.000836 ± 0.00024 | – | 0.0514 ± 0.014 | – | – |
| A42U G63A | < 1e-05 | – | < 1e-05 | < 1e-05 | – |
| G41U C50A | < 1e-05 | < 1e-05 | < 1e-05 | < 1e-05 | < 1e-05 |
| G43A C68U | 0.00208 ± 0.00023 | 0.00432 ± 0.00092 | 0.041 ± 0.0092 | 0.0114 ± 0.0021 | 0.00869 ± 0.0023 |
| A42G A52G U65G | < 1e-05 | – | 0.000346 ± 8.1e-05 | – | 8.47e-05 ± 2.8e-05 |
| G43U G66C | < 1e-05 | < 1e-05 | – | – | < 1e-05 |
| A42C U54A | < 1e-05 | < 1e-05 | – | < 1e-05 | < 1e-05 |
| G44A A64C | < 1e-05 | – | < 1e-05 | < 1e-05 | < 1e-05 |
| U46G C68G C71G | 9.54e-05 ± 3.1e-05 | – | – | – | – |
| A42U G43U G60U | < 1e-05 | – | – | – | – |
